Source: patent US20150291695A1 (CANCER RESEARCH TECHNOLOGY, published 2015)

T1: carcinoembryonic antigen on LS-174T cells (human, UniProt P06731 35-702)
T1 construct: whole, on cells; also called CEA on LS174T cells; CEA-expressing LS-174T cells
T1 sequence: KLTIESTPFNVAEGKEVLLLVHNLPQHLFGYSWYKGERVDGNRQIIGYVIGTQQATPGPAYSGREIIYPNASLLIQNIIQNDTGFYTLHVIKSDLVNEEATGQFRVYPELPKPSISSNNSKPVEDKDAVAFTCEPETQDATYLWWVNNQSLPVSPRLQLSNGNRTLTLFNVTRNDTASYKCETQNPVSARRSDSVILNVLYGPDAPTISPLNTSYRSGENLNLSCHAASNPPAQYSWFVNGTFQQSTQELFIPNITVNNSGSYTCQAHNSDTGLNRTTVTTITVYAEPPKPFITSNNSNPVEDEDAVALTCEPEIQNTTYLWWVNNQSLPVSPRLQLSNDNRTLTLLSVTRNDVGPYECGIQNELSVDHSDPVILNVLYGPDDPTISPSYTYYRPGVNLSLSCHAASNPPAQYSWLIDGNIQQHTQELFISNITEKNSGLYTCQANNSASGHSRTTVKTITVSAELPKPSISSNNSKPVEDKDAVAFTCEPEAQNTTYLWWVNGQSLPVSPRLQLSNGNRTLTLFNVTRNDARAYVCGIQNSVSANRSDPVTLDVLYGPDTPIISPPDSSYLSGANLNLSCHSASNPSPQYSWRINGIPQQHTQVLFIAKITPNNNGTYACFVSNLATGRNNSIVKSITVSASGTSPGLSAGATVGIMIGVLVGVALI

T2: carcinoembryonic antigen, immobilized (UniProt P06731 35-685)
T2 construct: also called CEA; immobilized CEA
T2 sequence: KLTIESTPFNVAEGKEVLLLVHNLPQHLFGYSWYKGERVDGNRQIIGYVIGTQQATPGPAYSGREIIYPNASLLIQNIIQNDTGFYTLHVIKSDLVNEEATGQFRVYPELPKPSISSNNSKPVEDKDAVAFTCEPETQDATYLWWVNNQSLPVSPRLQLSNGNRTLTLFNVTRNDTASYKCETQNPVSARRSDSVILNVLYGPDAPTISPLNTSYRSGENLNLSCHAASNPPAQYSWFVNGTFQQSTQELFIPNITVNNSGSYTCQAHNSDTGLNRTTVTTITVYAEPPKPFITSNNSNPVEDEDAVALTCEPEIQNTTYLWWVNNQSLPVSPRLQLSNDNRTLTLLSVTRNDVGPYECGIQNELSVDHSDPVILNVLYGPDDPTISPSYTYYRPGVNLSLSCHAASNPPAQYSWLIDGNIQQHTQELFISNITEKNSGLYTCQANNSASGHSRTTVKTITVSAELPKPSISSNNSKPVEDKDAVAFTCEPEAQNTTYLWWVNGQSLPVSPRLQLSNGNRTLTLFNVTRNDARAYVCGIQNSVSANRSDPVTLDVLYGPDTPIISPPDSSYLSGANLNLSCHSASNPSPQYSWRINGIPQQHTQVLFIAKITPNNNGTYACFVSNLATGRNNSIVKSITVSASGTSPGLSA

B1: NFEVP1 (scFv)
scFv: QVKLQQSGAELVRSGTSVKLSCTASGFNIKDSYMHWLRQGPEQGLEWIGWIDPENGDTEYAPKFQGKATFTTDTSSNTAYLQLSSLTSEDTAVYYCNEGTPTAVPNLRGDLQVLAQKVAGPYPFDYWGQGTTVTVSSGGGGSGGGGSGGGGSENVLTQSPAIMSASPGEKVTITCSASSSVSYMHWFQQKPGTSPKLWIYSTSNLASGVPARFSGSGSGTSYSLTISRMEAEDAATYYCQQRSSYPLTFGAGTKLELKRAAAHHHHHH
B2: MFE-23 scFv (scFv)
scFv: QVKLQQSGAELVRSGTSVKLSCTASGFNIKDSYMHWLRQGPEQGLEWIGWIDPENGDTEYAPKFQGKATFTTDTSSNTAYLQLSSLTSEDTAVYYCNEGTPTGPYYFDYWGQGTTVTVSSGGGGSGGGGSGGGGSENVLTQSPAIMSASPGEKVTITCSASSSVSYMHWFQQKPGTSPKLWIYSTSNLASGVPARFSGSGSGTSYSLTISRMEAEDAATYYCQQRSSYPLTFGAGTKLELKRAAAHHHHHH
notes: also called parent MFE

What was measured:
[1] = target: T3, α5β1 integrin on A375Ppuro cells (UniProt P08648 42-1049; P05556 21-798); assay: flow cytometry on A375Ppuro cells, which express α5β1
T3 construct: whole, on cells

[2] = target: T1, carcinoembryonic antigen on LS-174T …; assay: flow cytometry on LS174T cells
[3] = target: T2, carcinoembryonic antigen, immobilized; assay: ELISA on immobilized CEA, rabbit anti-MFE detection, three concentrations
[4] = target: T4, αvβ3 integrin, immobilized (UniProt P06756 31-1048; P05106 27-788); assay: ELISA on immobilized αvβ3, rabbit anti-MFE detection
T4 construct: also called immobilized αvβ3
T4 sequence (P06756 31-1048, chain 1 of 2): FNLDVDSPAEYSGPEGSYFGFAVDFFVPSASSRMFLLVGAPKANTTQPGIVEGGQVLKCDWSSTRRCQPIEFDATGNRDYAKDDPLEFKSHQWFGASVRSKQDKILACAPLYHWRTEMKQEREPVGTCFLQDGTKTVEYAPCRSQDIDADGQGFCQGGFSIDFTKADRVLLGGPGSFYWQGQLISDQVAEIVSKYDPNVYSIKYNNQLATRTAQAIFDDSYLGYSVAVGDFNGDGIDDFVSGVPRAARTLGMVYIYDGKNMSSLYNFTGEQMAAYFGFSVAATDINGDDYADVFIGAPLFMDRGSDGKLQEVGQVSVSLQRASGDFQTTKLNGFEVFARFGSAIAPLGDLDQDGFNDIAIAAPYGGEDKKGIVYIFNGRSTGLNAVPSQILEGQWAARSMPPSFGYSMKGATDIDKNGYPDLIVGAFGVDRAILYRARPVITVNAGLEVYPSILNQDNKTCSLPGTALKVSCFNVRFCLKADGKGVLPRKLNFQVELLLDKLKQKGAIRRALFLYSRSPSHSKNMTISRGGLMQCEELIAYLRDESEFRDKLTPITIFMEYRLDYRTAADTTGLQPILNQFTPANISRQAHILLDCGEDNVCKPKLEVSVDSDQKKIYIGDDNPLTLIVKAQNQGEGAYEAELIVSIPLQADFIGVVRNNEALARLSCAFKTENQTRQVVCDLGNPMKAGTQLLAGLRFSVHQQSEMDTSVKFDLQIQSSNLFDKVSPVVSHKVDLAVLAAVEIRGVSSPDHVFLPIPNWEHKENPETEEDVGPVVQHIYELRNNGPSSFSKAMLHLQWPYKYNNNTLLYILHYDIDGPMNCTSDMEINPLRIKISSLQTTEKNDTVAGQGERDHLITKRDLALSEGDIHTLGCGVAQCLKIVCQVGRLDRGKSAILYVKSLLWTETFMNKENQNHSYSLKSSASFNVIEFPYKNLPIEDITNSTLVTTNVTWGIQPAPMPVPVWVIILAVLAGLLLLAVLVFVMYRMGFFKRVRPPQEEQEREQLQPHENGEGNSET
T4 sequence (P05106 27-788, chain 2 of 2): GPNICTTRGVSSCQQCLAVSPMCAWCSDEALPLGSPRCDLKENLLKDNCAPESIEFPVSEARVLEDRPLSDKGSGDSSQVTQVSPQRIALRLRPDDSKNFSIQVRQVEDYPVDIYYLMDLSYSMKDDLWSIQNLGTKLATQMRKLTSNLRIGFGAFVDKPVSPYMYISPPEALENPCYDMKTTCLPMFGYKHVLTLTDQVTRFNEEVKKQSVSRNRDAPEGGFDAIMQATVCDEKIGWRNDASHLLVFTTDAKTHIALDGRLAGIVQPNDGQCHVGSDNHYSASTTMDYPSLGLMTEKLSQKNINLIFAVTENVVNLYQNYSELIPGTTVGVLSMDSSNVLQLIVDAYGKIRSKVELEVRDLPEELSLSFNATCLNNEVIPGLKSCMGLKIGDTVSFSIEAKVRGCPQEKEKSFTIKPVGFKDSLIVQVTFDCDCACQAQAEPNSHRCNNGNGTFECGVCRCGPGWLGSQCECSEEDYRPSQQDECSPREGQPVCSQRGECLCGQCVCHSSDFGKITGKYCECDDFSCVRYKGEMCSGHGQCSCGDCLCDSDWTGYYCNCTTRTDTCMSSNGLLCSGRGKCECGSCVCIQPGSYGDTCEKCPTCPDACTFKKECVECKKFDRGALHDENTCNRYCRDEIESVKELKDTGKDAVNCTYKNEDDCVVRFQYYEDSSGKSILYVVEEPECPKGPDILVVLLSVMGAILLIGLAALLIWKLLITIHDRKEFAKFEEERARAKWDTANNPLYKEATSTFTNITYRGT

[5] = target: T5, αvβ5 integrin on A375Ppuro cells (UniProt P06756 31-1048; P18084 24-799); assay: flow cytometry on A375Ppuro cells, which express αvβ5
T5 construct: whole, on cells
T5 sequence (P06756 31-1048, chain 1 of 2): as the sequence (P06756 31-1048, chain 1 of 2) above
T5 sequence (P18084 24-799, chain 2 of 2): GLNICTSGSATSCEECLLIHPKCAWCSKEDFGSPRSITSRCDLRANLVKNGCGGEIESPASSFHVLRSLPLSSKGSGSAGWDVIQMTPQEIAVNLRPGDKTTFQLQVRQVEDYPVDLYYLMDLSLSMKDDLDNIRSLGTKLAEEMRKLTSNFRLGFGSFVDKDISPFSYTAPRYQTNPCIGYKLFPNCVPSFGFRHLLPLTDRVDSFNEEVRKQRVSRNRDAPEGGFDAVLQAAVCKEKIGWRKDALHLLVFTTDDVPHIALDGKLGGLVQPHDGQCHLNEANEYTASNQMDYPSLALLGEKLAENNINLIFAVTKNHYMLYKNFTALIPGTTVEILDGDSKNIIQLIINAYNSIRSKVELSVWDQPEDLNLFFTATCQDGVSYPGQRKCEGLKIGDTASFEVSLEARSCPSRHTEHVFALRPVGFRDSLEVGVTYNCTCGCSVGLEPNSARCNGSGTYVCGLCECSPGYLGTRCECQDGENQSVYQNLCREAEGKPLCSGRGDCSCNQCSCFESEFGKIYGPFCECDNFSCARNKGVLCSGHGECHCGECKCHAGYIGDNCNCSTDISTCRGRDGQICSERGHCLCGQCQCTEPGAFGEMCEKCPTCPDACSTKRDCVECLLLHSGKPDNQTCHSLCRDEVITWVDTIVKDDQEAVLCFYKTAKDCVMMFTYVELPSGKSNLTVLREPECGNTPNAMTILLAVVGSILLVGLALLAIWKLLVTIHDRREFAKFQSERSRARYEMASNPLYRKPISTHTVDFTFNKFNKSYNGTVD

[6] = target: T6, αvβ3 integrin on A375Ppuro cells (UniProt P06756 31-1048; P05106 27-788); assay: flow cytometry on A375Ppuro cells, which express αvβ3
T6 construct: whole, on cells
T6 sequence (P06756 31-1048, chain 1 of 2): as the sequence (P06756 31-1048, chain 1 of 2) above
T6 sequence (P05106 27-788, chain 2 of 2): as the sequence (P05106 27-788, chain 2 of 2) above

[7] = target: T7, αvβ8 integrin on A375Ppuro cells (UniProt P06756 31-1048; P26012 43-769); assay: flow cytometry on A375Ppuro cells, which express αvβ8
T7 construct: whole, on cells
T7 sequence (P06756 31-1048, chain 1 of 2): as the sequence (P06756 31-1048, chain 1 of 2) above
T7 sequence (P26012 43-769, chain 2 of 2): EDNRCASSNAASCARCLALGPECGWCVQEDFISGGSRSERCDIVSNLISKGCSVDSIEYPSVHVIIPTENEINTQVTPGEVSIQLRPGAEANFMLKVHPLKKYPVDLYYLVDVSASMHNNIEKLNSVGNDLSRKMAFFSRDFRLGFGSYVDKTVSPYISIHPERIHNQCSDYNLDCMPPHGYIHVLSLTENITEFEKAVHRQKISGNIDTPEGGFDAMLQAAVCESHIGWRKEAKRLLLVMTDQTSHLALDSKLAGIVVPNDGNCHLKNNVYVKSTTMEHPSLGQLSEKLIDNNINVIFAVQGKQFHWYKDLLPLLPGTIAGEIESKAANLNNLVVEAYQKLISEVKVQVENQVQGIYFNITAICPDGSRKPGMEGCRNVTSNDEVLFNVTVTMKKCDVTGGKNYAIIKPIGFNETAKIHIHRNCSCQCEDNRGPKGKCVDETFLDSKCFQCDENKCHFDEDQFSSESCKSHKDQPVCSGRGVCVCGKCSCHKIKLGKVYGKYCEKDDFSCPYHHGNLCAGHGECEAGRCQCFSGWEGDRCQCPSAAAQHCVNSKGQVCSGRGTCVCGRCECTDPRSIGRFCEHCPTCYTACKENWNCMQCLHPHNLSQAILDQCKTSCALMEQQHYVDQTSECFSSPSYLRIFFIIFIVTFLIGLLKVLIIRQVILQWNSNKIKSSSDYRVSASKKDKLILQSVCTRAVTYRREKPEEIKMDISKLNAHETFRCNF

[8] = target: T8, αvβ6 integrin, immobilized (UniProt P06756 31-992; P18564 22-709); assay: ELISA on immobilized αvβ6, rabbit anti-MFE detection
T8 construct: also called immobilized αvβ6; rsαvβ6

Binder | binding result [1] | binding result [2] | binding result [3] | binding result [4] | binding result [5] | binding result [6] | binding result [7] | binding result [8]
B1 | no binding | no binding (tested: 50 µg/ml) | no binding | no binding (tested: 20 µg/ml) | no binding | no binding | no binding | –
B2 | – | – | – | – | – | – | – | no binding (tested: 10 µg/ml)
